The values below come from patent US20240254229A1 (Molecular Partners, published 2024).

Experiment [1] deals with T1, hCD33 (recombinant, construct not stated) (human, UniProt P20138 18-259, limits assumed).
T1 construct: also called CD33 (Ligand 1)
The experiment can be described thus: switchSENSE, hCD33 and hCD123 co-immobilised 2:1; panel headed CD33. The procedure: (§1) The designed ankyrin repeat proteins: DARPin® protein #20, DARPin® protein #21, DARPin® protein #22, DARPin® protein #27, DARPin® protein #40 and DARPin® protein #41 were tested in a concentration of 0.16 and 64 nM (in a buffer PE140 containing 10 mM Na2HPO4/NaH2PO4, 140 mM NaCl, 0.05% Tween20, 50 μM EDTA, 50 μM EGTA) for binding against two ligands hCD33 and hCD123, which both were immobilized simultaneously to DNA nanolevers, on the surface, at a pre-defined ratio (2:1, CD33:CD123) and 10% density (100:50) on an ADP-48-1-0 chip, where 100% density 1000 receptors/μm2 (preincubated R1-B48-CD123 and G1-A48-CD33 (100 nM) diluted in cNL-48 (dark)). Briefly the following steps were performed: [0724] Conjugation. Amine coupling of the two ligands (CD33 and CD123) to the DNA nanolever (A48, B48, respectively) and purification of the conjugates using the proFIRE® solution (Dynamic Biosensors GmbH) at 25° C. [0725] Evaluation of all the combined affinity and avidity of all different proteins to both ligands attached on the surface of an ADP chip using a DRX+ instrument (dynamic BIOSENSORS). [0726] Statistical analysis (repeatability from 2 to 5 times) including regeneration of the chip surface every concentration analyzed and long dissociation times and data were fitted using a bi-exponential global fit.

For experiment [2], the target named is T2, hCD123 (recombinant, construct not stated) (human, UniProt P26951 19-305, limits assumed).
T2 construct: also called CD123 (Ligand 2)
T2 sequence (looked up): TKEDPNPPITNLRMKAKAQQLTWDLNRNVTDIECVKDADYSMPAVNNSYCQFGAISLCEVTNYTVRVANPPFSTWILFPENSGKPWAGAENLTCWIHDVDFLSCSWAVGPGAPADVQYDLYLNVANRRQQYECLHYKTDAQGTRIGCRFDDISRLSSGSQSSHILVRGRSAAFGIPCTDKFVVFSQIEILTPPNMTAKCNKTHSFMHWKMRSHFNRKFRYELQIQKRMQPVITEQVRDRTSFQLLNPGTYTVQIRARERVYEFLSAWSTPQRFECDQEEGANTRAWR
As to the kind of experiment: switchSENSE, CD33 and CD123 on one chip; monophasic; CD123-only control, monophasic.

The target in experiment [3] is T2, hCD123 (recombinant, construct not …). As to the kind of experiment: switchSENSE, hCD33 and hCD123 co-immobilised 2:1; panel headed CD123, column KD1; KD2 printed N.A. As to the method:
as §1

For experiment [4], the target named is T1, hCD33 (recombinant, construct not …). The experiment can be described thus: switchSENSE, hCD33 and hCD123 co-immobilised 2:1; panel headed CD33, column KD1; KD2 printed N.A. The procedure: as §1
Experiment [5] shares this target. As to the kind of experiment: switchSENSE, CD33 and CD123 on one chip; monophasic; CD33-only control, monophasic.
The target of experiment [6] is T2, hCD123 (recombinant, construct not …). As to the kind of experiment: switchSENSE, hCD33 and hCD123 co-immobilised 2:1; panel headed CD123. As to the method: as §1
Experiment [7] deals with T3, hCD33 and hCD123 immobilized simultaneously on one switchSENSE chip (ratio 2:1, CD33:CD123) (human, UniProt P20138 18-259; P26951 19-305, limits assumed).
T3 construct: Not a complex: two separate ligands on one surface; used for avidity values and for off-rates; also called both ligands; both targets attached to the surface of the chip
The experiment can be described thus: switchSENSE, CD33 and CD123 on one chip; fast phase (affinity). As to the method: as §1

For experiment [8], the target named is T3, hCD33 and hCD123 immobilized …. The experiment can be described thus: switchSENSE, CD33 and CD123 on one chip; slow phase (avidity); slow phase (avidity).
The target of experiment [9] is T1, hCD33 (recombinant, construct not …). The experiment can be described thus: switchSENSE, hCD33 and hCD123 co-immobilised 2:1; panel headed CD33, column KD1 (affinity). The procedure:
as §1

Experiment [10] has the same target. As to the kind of experiment: switchSENSE, CD33 and CD123 on one chip. As to the method: as §1
Experiment [11] addresses T2, hCD123 (recombinant, construct not …). As to the kind of experiment: switchSENSE, CD33 and CD123 on one chip. As to the method: as §1
Experiment [12] concerns the target T3, hCD33 and hCD123 immobilized …. The experiment can be described thus: switchSENSE, hCD33 and hCD123 co-immobilised 2:1; panel headed CD33, column KD2 (avidity, simultaneous binding of CD33 and CD123 per paragraph 694). As to the method:
as §1

The target in experiment [13] is T1, hCD33 (recombinant, construct not …). The experiment can be described thus: switchSENSE; KD,1 (affinity); KD,1 (affinity), CD33. As to the method: as §1
For experiment [14], the target named is T3, hCD33 and hCD123 immobilized …. The experiment can be described thus: switchSENSE, CD33 and CD123 on one chip; slow phase (avidity). The procedure: as §1
Experiment [15] concerns the target T2, hCD123 (recombinant, construct not …). As to the kind of experiment: switchSENSE, CD33 and CD123 on one chip; kon to CD123. The procedure:
as §1

For experiment [16] the target is unchanged. The experiment can be described thus: switchSENSE; KD,1 (affinity); KD,1 (affinity), CD123. As to the method: as §1
Experiment [17] has as its target T1, hCD33 (recombinant, construct not …). The experiment can be described thus: switchSENSE, CD33 and CD123 on one chip; kon to CD33. The procedure: as §1
Experiment [18] has as its target T3, hCD33 and hCD123 immobilized …. As to the kind of experiment: switchSENSE, hCD33 and hCD123 co-immobilised 2:1; panel headed CD123, column KD2 (avidity, simultaneous binding of CD33 and CD123 per paragraph 694). The procedure:
as §1

For experiment [19] the target is unchanged. The experiment can be described thus: switchSENSE, CD33 and CD123 on one chip; fast phase (affinity); fast phase (affinity). As to the method: as §1
In experiment [20] the target is T2, hCD123 (recombinant, construct not …). As to the kind of experiment: switchSENSE, hCD33 and hCD123 co-immobilised 2:1; panel headed CD123, column KD1 (affinity). The procedure: as §1
The target of experiment [21] is T4, biotinylated extracellular domain of human CD123 (SEQ ID NO: 88), Fc and Avi tagged (human, UniProt P26951 19-303, biotinylated with BirA-GST (Avi tag)).
T4 construct: also called hCD123
T4 sequence: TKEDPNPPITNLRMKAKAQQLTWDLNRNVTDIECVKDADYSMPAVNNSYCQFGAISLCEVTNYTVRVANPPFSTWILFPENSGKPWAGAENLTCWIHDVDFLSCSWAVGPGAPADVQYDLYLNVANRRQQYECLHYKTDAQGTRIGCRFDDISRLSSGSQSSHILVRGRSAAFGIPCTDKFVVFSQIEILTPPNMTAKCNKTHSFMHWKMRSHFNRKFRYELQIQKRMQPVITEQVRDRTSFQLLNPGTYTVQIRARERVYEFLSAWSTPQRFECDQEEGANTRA
The experiment can be described thus: ribosome display selection, crude extract HTRF. (In general: TR-FRET usually uses a lanthanide donor and a delayed reading to cut background.)

Several values for one entry are separate records, joined by “and”; a condition that tells them apart may be missing. Identical values can stand only once.

T3 sequence (P20138 18-259 limits assumed, one chain of several): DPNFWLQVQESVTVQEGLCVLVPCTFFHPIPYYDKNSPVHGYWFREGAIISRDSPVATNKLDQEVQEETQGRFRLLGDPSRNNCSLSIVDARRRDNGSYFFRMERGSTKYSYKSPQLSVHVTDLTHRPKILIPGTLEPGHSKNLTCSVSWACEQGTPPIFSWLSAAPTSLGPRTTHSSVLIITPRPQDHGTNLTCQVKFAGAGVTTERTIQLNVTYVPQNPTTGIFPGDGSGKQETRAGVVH
T1 sequence (P20138 18-259 limits assumed): as the sequence (P20138 18-259 limits assumed, one chain of several) above

B1: DARPin® protein #41 (designed binder)
chain: DLGKKLLEAALEGQLDEVRELLKAGADVNAKDQEGYTPLHLAAALGHLEIVEVLLKAGADVNAKDSIGRTPLHLAAYKGHLEIVEVLLKAGADVNAQDLLGETPADLAAEQGHQDIAEVLQKAAGSPTPTPTTPTPTPTTPTPTPTGSDLGKKLLEAARAGQDDEVRELLKAGADVNAKDKDGYTPLHLAAREGHLEIVEVLLKAGADVNAKDKDGYTPLHLAAREGHLEIVEVLLKAGADVNAQDKSGKTPADLAADAGHEDIAEVLQKAAGSPTPTPTTPTPTPTTPTPTPTGSDLGQKLLEAAWAGQDDEVRELLKAGADVNAKNSRGWTPLHTAAQTGHLEIFEVLLKAGADVNAKDDKGVTPLHLAAALGHLEIVEVLLKAGADVNAQDSWGTTPADLAAKYGHEDIAEVLQKAA
notes: also called αCD123-Ni2C-αCD3
Regarding B1, the binding result in experiment [1] is “no binding”. For the same molecule, the dissociation rate constant (koff) in [2] came out at 0.06 s⁻¹. In addition, the Kd in [3] is 4.2 nM.

B2: DARPin® protein #40 (designed binder)
chain: DLGKKLLEAARAGQDDEVRELLKAGADVNAKDKDGYTPLHLAAREGHLEIVEVLLKAGADVNAKDKDGYTPLHLAAREGHLEIVEVLLKAGADVNAQDKSGKTPADLAADAGHEDIAEVLQKAAGSPTPTPTTPTPTPTTPTPTPTGSDLGVKLLLAASRGQLDEVRILLKAGADVNAKDIDEGYTPLHIAAYYGHLEIVEVLLKAGADVNAKDRYGKTPLHLAAISGHLEIVEVLLKAGADVNAQDDKGDTPADLAADYGHQDIAEVLQKAAGSPTPTPTTPTPTPTTPTPTPTGSDLGQKLLEAAWAGQDDEVRELLKAGADVNAKNSRGWTPLHTAAQTGHLEIFEVLLKAGADVNAKDDKGVTPLHLAAALGHLEIVEVLLKAGADVNAQDSWGTTPADLAAKYGHEDIAEVLQKAA
notes: also called Ni2C-αCD33-αCD3
As for B2, the Kd in experiment [4] turned out to be 7.1 nM. Also, in experiment [5], the off-rate (koff) came to 0.01 s⁻¹. The binding result in [6] was “no binding”.

B3: DARPin® protein #20 (designed binder)
chain: DLGKKLLEAARAGQDDEVRILMANGADVNALDWLGHTPLHLAAYEGHLEIVEVLLKNGADVNAIDDNNGFTPLHLAAIDGHLEIVEVLLKNGADVNAQDKFGKTAFDISIDNGNEDLAEILQKAAGSPTPTPTTPTPTPTTPTPTPTGSDLGDKLLLAATSGQDDEVRILLAAGADVNAKDYDGDTPLHLAADEGHLEIVEVLLKAGADVNAKDYSGSTPLHAAAAYGHLEIVEVLLKAGADVNAQDVFGYTPADLAAYVGHEDIAEVLQKAAGSPTPTPTTPTPTPTTPTPTPTGSDLGQKLLEAAWAGQDDEVRILLAAGADVNAKNSRGWTPLHTAAQTGHLEIFEVLLKAGADVNAKNDKRVTPLHLAAALGHLEIVEVLLKAGADVNARDSWGTTPADLAAKYGHGDIAEVLQKLA
notes: CD123-CD33-CD3; also called αCD123-αCD33-αCD3_1
For B3, the koff in experiment [7] is ~0.01 s⁻¹ and 0.02 s⁻¹; in experiment [8], 0.0015 s⁻¹; in [14] it was ~0.001 s⁻¹ and 0.001 s⁻¹; in [19], 0.03 s⁻¹. Also, the Kd in experiment [9] is 18 nM; in experiment [12], 0.7 nM; in experiment [13], ~17.6 nM; in experiment [16] it was ~4.9 nM; in experiment [18], 0.29 nM; in [20], 4.9 nM. In addition, the kon in experiment [10] was ~1e+06 M⁻¹ s⁻¹; in experiment [11], ~1e+07 M⁻¹ s⁻¹; in experiment [15], 7e+06 M⁻¹ s⁻¹; in [17] it was 1.3e+06 M⁻¹ s⁻¹.

B4: DARPin® protein #35 (designed binder)
chain: DLGKKLLEAALEGQDDEVRELLKAGADVNAKDQEGYTPLHLAAALGHLEIVEVLLKAGADVNAKDSIGRTPLHLAAYKGHLEIVEVLLKAGADVNAQDLLGETPADLAAEQGHEDIAEVLQKAA
notes: CD123-specific domain; screened as crude extract
With B4, the binding result in [21] is recorded as “binds”.

Broadly, the koff is the rate constant with which the complex falls apart. By kon is commonly meant a measure of how fast the partners come together.
